Results from patent US20250223358A1 (ANTENGENE BIOLOGICS, published 2025).
Residue numbers refer to the chain shown, from its start. In names and notes the source's numbering stands.

B1: hu40E9-L2H3 (antibody, V domains shown)
VH: EVQLVQSGAEVKKPGSSVKVSCKASGYTFSSYVIHWVRQAPGQGLEWMGYINPYNDVIKYNEKFKGRVTLTSDKSTSTAYMELSSLRSEDTAVYYCARDSYYSYDGFAYWGQGTLVTVSS
VL: EIVLTQSPDFQSVTPKEKVTITCSASSSVSYMHWYQQKPDQSPKRLIYDTSKLASGVPSRFSGSGSGTDFTLTINSLEAEDAATYYCQQWSSNPPTFGGGTKVEIK
notes: humanized 40-C12-C10-E9
B2: hu40E9-L2H1 (antibody, V domains shown)
VH: B1 VH with Y27G, L70I, S72A
VL: B1 VL
notes: humanized 40-C12-C10-E9
B3: hu40E9-L2H2 (antibody, V domains shown)
VH: B1 VH with L70I, S72A
VL: B1 VL
notes: humanized 40-C12-C10-E9
B4: hu40E9-L2H3-D56G.H (antibody, V domains shown)
VH: B1 VH with D56G
VL: B1 VL
B5: hu40E9-L2H3-D99E.H (antibody, V domains shown)
VH: B1 VH with D99E
VL: B1 VL
B6: hu40E9-L2H3-D105E.H (antibody, V domains shown)
VH: B1 VH with D105E
VL: B1 VL
B7: hu40E9-L2H3-D105R.H (antibody, V domains shown)
VH: B1 VH with D105R
VL: B1 VL
B8: hu40E9-L2H3-G106A.H (antibody, V domains shown)
VH: B1 VH with G106A
VL: B1 VL
B9: hu40E9-L2H3-N55S.H (antibody, V domains shown)
VH: B1 VH with N55S
VL: B1 VL
B10: hu40E9-L2H3-N93R.L (antibody, V domains shown)
VH: B1 VH
VL: B1 VL with N93R
B11: hu40E9-L2H3-N93S.L (antibody, V domains shown)
VH: B1 VH
VL: B1 VL with N93S
B12: hu40E9-L2H3-N93W.L (antibody, V domains shown)
VH: B1 VH
VL: B1 VL with N93W
B13: hu40E9-L2H3-S91R.L (antibody, V domains shown)
VH: B1 VH
VL: B1 VL with S91R
B14: hu40E9-L2H3-Y54G.H (antibody, V domains shown)
VH: B1 VH with Y54G
VL: B1 VL
B15: hu40E9-L2H3-Y101F.H (antibody, V domains shown)
VH: B1 VH with Y101F
VL: B1 VL
B16: hu40E9-L2H3-Y102S.H (antibody, V domains shown)
VH: B1 VH with Y102S
VL: B1 VL
B17: hu40E9-L2H4 (antibody, V domains shown)
VH: B1 VH with M48I, V68A
VL: B1 VL
notes: humanized 40-C12-C10-E9
B18: hu40E9-L3H1 (antibody, V domains shown)
VH: B1 VH with Y27G, L70I, S72A
VL: B1 VL with L46W, F70Y
notes: humanized 40-C12-C10-E9
B19: hu40E9-L3H2 (antibody, V domains shown)
VH: B1 VH with L70I, S72A
VL: B1 VL with L46W, F70Y
notes: humanized 40-C12-C10-E9
B20: hu40E9-L3H4 (antibody, V domains shown)
VH: B1 VH with M48I, V68A
VL: B1 VL with L46W, F70Y
notes: humanized 40-C12-C10-E9

Experiments:
human CD3 [1] = biological target: T1, human CD3 (human, UniProt P07766 23-207; P04234 22-171; P09693 23-182); test: FACS on Jurkat cells
T1 construct: whole, on cells; also called hCD3; CD3 on Jurkat cells

human CD3 [2] = biological target: T1, human CD3; test: cell-based or functional assay

T1 sequence (P07766 23-207, chain 1 of 3): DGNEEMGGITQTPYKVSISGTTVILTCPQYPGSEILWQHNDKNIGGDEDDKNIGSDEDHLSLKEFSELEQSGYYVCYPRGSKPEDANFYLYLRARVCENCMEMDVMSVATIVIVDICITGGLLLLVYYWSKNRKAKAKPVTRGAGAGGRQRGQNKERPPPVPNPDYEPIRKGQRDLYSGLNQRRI
T1 sequence (P04234 22-171, chain 2 of 3): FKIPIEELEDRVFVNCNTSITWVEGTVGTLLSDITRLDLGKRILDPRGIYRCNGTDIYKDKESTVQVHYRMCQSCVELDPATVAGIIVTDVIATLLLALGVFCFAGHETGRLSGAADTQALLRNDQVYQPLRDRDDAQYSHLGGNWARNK
T1 sequence (P09693 23-182, chain 3 of 3): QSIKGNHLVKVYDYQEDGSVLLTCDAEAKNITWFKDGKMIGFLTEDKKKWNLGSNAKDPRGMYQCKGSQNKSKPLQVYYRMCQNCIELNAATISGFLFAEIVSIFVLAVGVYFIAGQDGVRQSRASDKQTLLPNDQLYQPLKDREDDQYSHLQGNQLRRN

Binder	EC50 (human CD3 [1])	Top FACS signal (human CD3 [1])	EC50_Fold change (Jurkat-NFAT-luciferase activation, normalized to ch40-C12-C10-E9) (human CD3 [2])	Top FACS signal_Fold change (Jurkat-NFAT-luciferase activation, normalized to ch40-C12-C10-E9) (human CD3 [2])
B1	0.65 nM	1580	2.43 fold	1.18 fold
B2	0.73 nM	892	5.73 fold	1.37 fold
B3	0.81 nM	1570	2.14 fold	1.28 fold
B4	0.32 nM	1450	0.65 fold	0.82 fold
B5	0.31 nM	957	1.19 fold	0.91 fold
B6	1.16 nM	1410	3.77 fold	0.74 fold
B7	0.56 nM	1480	1.95 fold	0.81 fold
B8	2.39 nM	771	4.95 fold	0.99 fold
B9	0.51 nM	1160	1.35 fold	1.03 fold
B10	0.63 nM	1420	0.81 fold	1.07 fold
B11	0.6 nM	1360	0.74 fold	0.87 fold
B12	0.51 nM	1210	0.72 fold	0.88 fold
B13	0.32 nM	1360	0.79 fold	0.95 fold
B14	0.51 nM	1190	1.06 fold	0.94 fold
B15	0.64 nM	1190	1.23 fold	0.94 fold
B16	0.47 nM	1160	0.87 fold	0.96 fold
B17	0.86 nM	1570	0.8 fold	0.89 fold
B18	0.75 nM	1250	1.33 fold	0.97 fold
B19	0.52 nM	1410	0.57 fold	0.73 fold
B20	0.49 nM	1360	0.61 fold	0.64 fold
